T1: cytosolic domain of human PRRG4 (human, UniProt Q9BZD6 139-226)
T1 construct: Expressed in insect cells; also called cytosolic hPPRG4; cystosolic domain of hPPRG4; not shown: purified by HA and histidine columns, so HA and His tags are implied
T1 sequence: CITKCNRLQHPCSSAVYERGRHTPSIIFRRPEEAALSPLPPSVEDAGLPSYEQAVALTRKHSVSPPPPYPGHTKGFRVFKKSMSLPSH


molecular target: T1, cytosolic domain of human PRRG4; assay: WW domain array probed with purified cytosolic hPRRG4; listed as a hit
From the text: PRRG4 has one WW-binding domain in its cytosolic domain. WW domains are involved in several cellular processes including cell cycle control and cell proliferation. In order to analyze the possible interactions of PRRG4 with different WW motif containing proteins, the cytosolic domain of human PRRG4 was purified by our group and used in TranSignal WW Domain Arrays. This array contains WW domains from 67 different human proteins and each WW domain is spotted in duplicate. […] Among these proteins Yes-Associated Protein1 (YAP 1) and Nedd4 are particularly important as they are known to play essential roles in several cellular activities including cell proliferation. FIGS. 9 and 10 are tables that show the proteins that are used on the array.
(§1) The cystosolic domain of hPPRG4 was expressed in insect cells and proteins were purified by HA and histidine columns. Interactions of cytosolic hPPRG4 with different SH3 and WW domains were tested by incubating purified hPRRG4 proteins with arrays containing SH3 and WW domains of several proteins. After incubation, PRRG4 bound to several proteins, most of which are non-receptor tyrosine kinases or scaffolding proteins. These newly identified binding partners provide valuable therapeutic targets for the isolation and characterization of therapeutic agents that impact PRRG4 mediated oncogenesis.

Row | binding result | Binder
1 | binds | LPLPPGWEMTFTATGQRYFLNHIEKITTWQDPRK (other, human, UniProt Q9GZV5 124-157, looked up, domain: WW domain; Array spot) [transcriptional co-activator with PDZ-binding motif (TAZ)]

molecular target: T1, cytosolic domain of human PRRG4; assay: SH3 domain array probed with purified cytosolic hPRRG4; listed as a hit
Protocol: as §1

Row | Binder | binding result
2 | Abelson-related protein; Arg tyrosine kinase (other, UniProt P42684 107-167, looked up, domain: SH3 domain; Array spot; also called Abl2) SDPNLFVALYDFVASGDNTLSITKGEKLRVLGYNQNGEWSEVRSKNGQGWVPSNYITPVNS | binds
3 | PAK-interacting exchange factor beta (other, UniProt Q14155 184-243, looked up, domain: SH3 domain; Array spot; also called Y124) NNQLVVRAKFNFQQTNEDELSFSKGDVIHVTRVEEGGWWEGTLNGRTGWFPSNYVREVKA | binds
4 | Peroxisomal membrane protein PEX13 (other, UniProt Q92968 272-336, looked up, domain: SH3 domain; Array spot; also called PEXD) DDHVVARAEYDFAAVSEEEISFRAGDMLNLALKEQQPKVRGWLLASLDGQTTGLIPANYVKILGK | binds
5 | Lyn, Src family of non-receptor protein Tyrosine kinase (other, UniProt P07948 63-123, looked up, domain: SH3 domain; Array spot) EQGDIVVALYPYDGIHPDDLSFKKGEKMKVLEEHGEWWKAKSLLTKKEGFIPSNYVAKLNT | binds
6 | Grb2-related adaptor protein, SH3 Domain #2 (other, UniProt Q13588 158-217, looked up, domain: SH3 Domain #2; Array spot; also called Grap-D2) PGACFAQAQFDFSAQDPSQLSFRRGDIIEVLERPDPHWWRGRSCGRVGFFPRSYVQPVHL | binds

Continued, values first:

Row | binding result | Binder
7 | binds | Tyrosine-protein kinase Tec (other, UniProt P42680 179-239, looked up, domain: SH3 domain; Array spot) NSEEIVVAMYDFQAAEGHDLRLERGQEYLILEKNDVHWWRARDKYGNEGYIPSNYVTGKKS
8 | binds | Osteoclast stimulating factor 1 (other, UniProt Q92882 12-71, looked up, domain: SH3 domain; Array spot; also called OSF) GQVKVFRALYTFEPRTPDELYFEEGDIIYITDMSDTNWWKGTSKGRTGLIPSNYVAEQAE
9 | binds | Bruton Tyrosine Kinase (other, UniProt Q06187 214-274, looked up, domain: SH3 domain; Array spot; also called BTK) SELKKVVALYDYMPMNANDLQLRKGDEYFILEESNLPWWRARDKNGQEGYIPSNYVTEAED
10 | binds | Nebulette (other, UniProt O76041 954-1014, looked up, domain: SH3 domain; Array spot; also called NEBL) PNLRTYRAMYDYSAQDEDEVSFRDGDYIVNVQPIDDGWMYGTVQRTGRTGMLPANYIEFVN
